Data as given in paper PMC3860265 (Journal of molecular biology, 2013).
Where two headings read alike, the source gives them in different places.

Legend:
Test in all cases: kinase competition assay
CLK1 [1] = target: T1, CLK1 (mouse, UniProt P22518 1-483)
SRPK1 [2] = target: T2, SRPK1 (UniProt Q96SB4 1-655)
CLK1 [3] = target: T1, CLK1; remark: listed apart in the source
SRPK1 [4] = target: T2, SRPK1; remark: listed apart in the source
SRPK1 [5] = target: T2, SRPK1; remark: listed apart in the source
CLK1 [6] = target: T1, CLK1; remark: listed apart in the source
SRPK1 [7] = target: T2, SRPK1; remark: listed apart in the source

T1 sequence (P22518 whole entry): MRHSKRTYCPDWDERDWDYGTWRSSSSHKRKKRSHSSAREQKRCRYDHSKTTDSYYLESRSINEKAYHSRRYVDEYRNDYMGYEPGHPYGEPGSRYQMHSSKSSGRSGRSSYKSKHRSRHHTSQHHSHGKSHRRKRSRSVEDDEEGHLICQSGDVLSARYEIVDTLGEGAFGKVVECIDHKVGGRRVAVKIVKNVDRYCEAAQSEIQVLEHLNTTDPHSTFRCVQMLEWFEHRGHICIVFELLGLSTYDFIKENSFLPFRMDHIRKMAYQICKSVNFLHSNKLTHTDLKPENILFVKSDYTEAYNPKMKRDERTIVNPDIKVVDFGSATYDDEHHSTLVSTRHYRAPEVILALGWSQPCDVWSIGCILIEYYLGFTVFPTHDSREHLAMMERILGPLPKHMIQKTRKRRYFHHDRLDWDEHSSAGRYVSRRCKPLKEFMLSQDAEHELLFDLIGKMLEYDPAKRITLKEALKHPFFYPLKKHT
T2 sequence (Q96SB4 whole entry): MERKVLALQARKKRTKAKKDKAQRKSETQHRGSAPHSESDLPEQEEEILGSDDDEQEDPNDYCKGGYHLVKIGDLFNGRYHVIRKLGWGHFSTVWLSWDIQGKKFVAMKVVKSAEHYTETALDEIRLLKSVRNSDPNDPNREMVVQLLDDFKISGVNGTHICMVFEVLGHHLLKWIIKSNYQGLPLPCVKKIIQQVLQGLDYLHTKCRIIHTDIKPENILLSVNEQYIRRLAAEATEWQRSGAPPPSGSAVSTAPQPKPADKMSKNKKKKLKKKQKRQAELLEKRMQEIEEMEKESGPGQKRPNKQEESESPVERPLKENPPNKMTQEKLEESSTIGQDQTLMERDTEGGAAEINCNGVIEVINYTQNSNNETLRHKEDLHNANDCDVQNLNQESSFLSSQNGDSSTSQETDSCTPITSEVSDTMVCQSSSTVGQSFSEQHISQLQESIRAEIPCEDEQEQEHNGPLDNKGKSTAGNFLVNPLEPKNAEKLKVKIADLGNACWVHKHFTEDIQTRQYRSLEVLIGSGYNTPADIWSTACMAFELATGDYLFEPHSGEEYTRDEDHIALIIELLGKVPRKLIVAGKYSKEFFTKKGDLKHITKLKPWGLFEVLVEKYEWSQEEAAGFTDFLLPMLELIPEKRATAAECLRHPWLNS

Row | Ki (SRPK1 [5]) [µM] | appKI (SRPK1 [5]) [nM] | Ki (CLK1 [6]) [µM] | appKI (CLK1 [6]) [nM] | Binder | also measured
1 |  |  |  |  | SR(P200,228,235A) (natural protein, UniProt Q07955 1-248, looked up) MSGGGVIRGPAGNNDCRIYVGNLPPDIRTKDIEDVFYKYGAIRDIDLKNRRGGPPFAFVEFEDPRDAEDAVYGRDGYDYDGYRLRVEFPRSGRGTGRGGGGGGGGGAPRGRYGPPSRRSENRVVVSGLPPSGSWQDLKDHMREAGDVCYADVYRDGTGVVEFVRKEDMTYAVRKLDNTKFRSHEGETAYIRVKVDGPRSASYGRSRSRSRSRSRSRSRSNSRSRSYSARRSRGSARYSPRHSRSRSRT | Ki (CLK1 [1]): 0.13 ± 0.02 µM; appKI (CLK1 [1]): 440 ± 70 nM; Ki (SRPK1 [2]): 0.033 ± 0.003 µM; appKI (SRPK1 [2]): 80 ± 8 nM
2 |  |  |  |  | SR(ΔRRM2) (domain or fragment) MSGGGVIRGPAGNNDCRIYVGNLPPDIRTKDIEDVFYKYGAIRDIDLKNRRGGPPFAFVEFEDPRDAEDAVYGRDGYDYDGYRLRVEFPRSGRGTGRGGGGGGGGGAPRGRYGPPSRRSEGPRSPSYGRSRSRSRSRSRSRSRSNSRSRSYSPRRSRGSPRYSPRHSRSRSRT | Ki (CLK1 [3]): 0.13 ± 0.03 µM; Ki (SRPK1 [4]): 0.3 ± 0.1 µM
3 | 0.19 ± 0.03 | 280 ± 50 | 0.24 ± 0.03 | 370 ± 40 | AYIRVKVDGPRSPSYGRSRSRSRSRSRSRSRSNSRSRSYSP (domain or fragment, UniProt Q07955 188-228, looked up) [SR(188–228)] | 
4 | 0.11 ± 0.007 | 170 ± 10 | 0.12 ± 0.01 | 180 ± 20 | AYIRVKVDGPRSPSYGRSRSRSRSRSRSRSRSNSRSRSYSPRRSRGSP (domain or fragment, UniProt Q07955 188-235, looked up) [SR(188–235)] | 
5 | 0.35 ± 0.2 | 520 ± 40 | 0.29 ± 0.02 | 440 ± 40 | AYIRVKVDGPRSPSYGRSRSRSRSRSRSRSRSN (domain or fragment, UniProt Q07955 188-220, looked up) [SR(188–220)] | 
6 |  |  |  |  | SR(RRM1-2) (domain or fragment) MSGGGVIRGPAGNNDCRIYVGNLPPDIRTKDIEDVFYKYGAIRDIDLKNRRGGPPFAFVEFEDPRDAEDAVYGRDGYDYDGYRLRVEFPRSGRGTGRGGGGGGGGGAPRGRYGPPSRRSENRVVVSGLPPSGSWQDLKDHMREAGDVCYADVYRDGTGVVEFVRKEDMTYAVRKLDNTKFRSHEGETAYIRVKVD | Ki (SRPK1 [7]): 0.17 ± 0.03 µM
7 |  |  |  |  | SR(RRM2) (domain or fragment) NRVVVSGLPPSGSWQDLKDHMREAGDVCYADVYRDGTGVVEFVRKEDMTYAVRKLDNTKFRSHEGETAYIRVKVD | Ki (SRPK1 [7]): 2.9 ± 0.5 µM
